Reference: patent US5459063A, “Plasmodium falciparum ribonucleotide reductase DNA” (priority 1993, dated 1995)
Read-outs that look alike come from different tables or passages of the source. Ends that are not written are not given here.

Columns and labels:
[1] = target: T1, calf thymus/mouse ribonucleotide reductase (mammalian RR) (Bos taurus, UniProt Q32LP1); experiment: biochemical
T1 sequence (Q32LP1 1-791): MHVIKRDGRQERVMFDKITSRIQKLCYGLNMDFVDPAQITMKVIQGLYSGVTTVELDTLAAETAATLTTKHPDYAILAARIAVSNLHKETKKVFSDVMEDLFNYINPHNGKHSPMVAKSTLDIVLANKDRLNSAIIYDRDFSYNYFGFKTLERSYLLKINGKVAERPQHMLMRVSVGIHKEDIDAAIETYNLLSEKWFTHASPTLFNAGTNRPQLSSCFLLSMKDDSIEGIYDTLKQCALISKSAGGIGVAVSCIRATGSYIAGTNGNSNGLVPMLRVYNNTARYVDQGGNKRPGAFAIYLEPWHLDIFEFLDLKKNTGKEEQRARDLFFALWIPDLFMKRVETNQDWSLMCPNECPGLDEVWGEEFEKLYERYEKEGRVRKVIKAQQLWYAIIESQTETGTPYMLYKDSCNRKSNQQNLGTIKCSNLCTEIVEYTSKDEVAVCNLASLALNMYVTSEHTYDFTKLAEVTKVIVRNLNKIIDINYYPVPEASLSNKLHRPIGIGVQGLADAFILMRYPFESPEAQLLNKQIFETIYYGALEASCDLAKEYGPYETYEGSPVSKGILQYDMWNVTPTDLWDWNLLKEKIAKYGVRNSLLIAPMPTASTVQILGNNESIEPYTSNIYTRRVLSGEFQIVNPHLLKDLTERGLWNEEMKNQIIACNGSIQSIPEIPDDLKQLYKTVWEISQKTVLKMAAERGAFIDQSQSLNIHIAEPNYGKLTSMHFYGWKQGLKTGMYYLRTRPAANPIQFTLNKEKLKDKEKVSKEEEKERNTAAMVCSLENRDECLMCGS
Source text: From two to four assays were run

[2] = target: T2, human RR (Homo sapiens, UniProt P23921); conditions: background, "about"; cited from earlier work
T2 sequence (P23921 1-792): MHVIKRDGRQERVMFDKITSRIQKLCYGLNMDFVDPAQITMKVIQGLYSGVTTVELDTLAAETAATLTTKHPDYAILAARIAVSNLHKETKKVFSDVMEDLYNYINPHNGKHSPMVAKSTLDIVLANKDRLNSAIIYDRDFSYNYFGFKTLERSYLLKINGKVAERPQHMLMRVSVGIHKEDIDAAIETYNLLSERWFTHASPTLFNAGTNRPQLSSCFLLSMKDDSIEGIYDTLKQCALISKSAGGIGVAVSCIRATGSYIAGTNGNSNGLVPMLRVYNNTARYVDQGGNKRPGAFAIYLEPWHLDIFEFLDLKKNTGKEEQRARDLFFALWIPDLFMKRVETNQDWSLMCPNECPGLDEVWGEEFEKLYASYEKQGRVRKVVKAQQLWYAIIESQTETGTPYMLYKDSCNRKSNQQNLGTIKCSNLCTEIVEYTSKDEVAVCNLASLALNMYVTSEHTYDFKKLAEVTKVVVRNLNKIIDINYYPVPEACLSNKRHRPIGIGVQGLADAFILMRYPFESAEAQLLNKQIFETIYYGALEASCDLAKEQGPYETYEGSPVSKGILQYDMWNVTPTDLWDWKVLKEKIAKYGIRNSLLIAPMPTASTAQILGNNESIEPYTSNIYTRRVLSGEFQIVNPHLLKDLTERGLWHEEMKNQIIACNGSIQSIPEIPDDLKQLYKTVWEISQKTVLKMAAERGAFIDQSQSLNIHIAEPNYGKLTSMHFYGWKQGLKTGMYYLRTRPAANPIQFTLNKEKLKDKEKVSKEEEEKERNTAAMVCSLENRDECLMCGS

[3] = target: calf thymus R1 (calf)
[4] = target: calf thymus R1 (calf); remark: listed apart in the source
[5] = target: S. cerevisiae (yeast) RR (S. cerevisiae)
[6] = target: calf thymus R1 (calf); remark: listed apart in the source

Molecule: Ac-FTLDADF [Peptide 4, Ac- (FTLDADF), reference compound]
- IC50 [1]: 8 to 20 µM
- IC50 ([1]; IC50, Mammalian RR, Table 5, mammalian RR, Dixon plots): 8 to 20 µM
- IC50 ([1]; IC50 on mammalian RR activity, Example 54 text, peptide bound to purified calf thymus R1 before adding recombinant mouse R2): 10 to 20 µM
- IC50 [2]: 10 to 20 µM

Molecule: Ac-FTLDADF [Ac-(FTLDADF)]
- Percent RI (percent relative inhibitory potency), mammalian RR activity [3]: 100%
- IC50, inhibition of mammalian RR activity [4]: 10 to 20 µM
- IC50, inhibition of Yeast RR activity [5]: 25 µM

Molecule: Ac-AGAFTFNEDF [Ac-(…)]
- IC50, inhibition of Yeast RR activity [5]: 25 µM

Molecule: Ac-TFNEDF [Ac-(TFNEDF)]
- IC50, inhibition of Yeast RR activity [5]: 600 µM
- IC50, inhibition of mammalian RR activity [6]: 600 µM

Molecule: Ac-FTFNEDF [Ac-(FTFNEDF)]
- IC50, inhibition of Yeast RR activity [5]: 25 µM
- IC50, inhibition of mammalian RR activity [6]: 100 µM
